What was measured:
Assay in all cases: cell-based or functional assay
[1] = biological target: HIV-1 Env of isolate MGRM-G-016 (HIV-1)
[2] = biological target: HIV-1 Env of isolate 92UG024 (clade D), on pseudovirus (HIV-1)
[3] = biological target: HIV-1 envelope glycoprotein (Env) of isolate 94UG103, clade A (HIV-1)
[4] = biological target: HIV-1 Env of isolate TRO.11 (Acute), clade B, on pseudovirus (HIV-1)
[5] = biological target: HIV-1 Env of isolate MGRM-Chronic-B-002, clade B, on pseudovirus (HIV-1)
[6] = biological target: HIV-1 IAVI-C3 envelope glycoprotein (Env) on pseudovirus (HIV-1)
[7] = biological target: HIV-1 envelope glycoprotein (Env) of isolate 92RW009, clade A (HIV-1)
[8] = biological target: HIV-1 Env of isolate VLGCA1 (clade A pseudovirus) (HIV-1)
[9] = biological target: HIV-1 Env of isolate 93TH305 (HIV-1)
[10] = biological target: HIV-1 envelope glycoprotein (Env) of isolate MGRM-A-009, clade A (HIV-1)
[11] = biological target: HIV-1 Env of isolate MGRM-D-026 (clade D pseudovirus) (HIV-1)
[12] = biological target: HIV-1 Env of isolate MGRM-G-015 (HIV-1)
[13] = biological target: HIV-1 Env of isolate MGRM-A-009 (subtype A) (HIV-1)
[14] = biological target: HIV-1 Env of isolate MGRM-Chronic-B-011 (subtype B) (HIV-1)
[15] = biological target: HIV-1 Env of isolate MGRM-AG-011 (subtype AG) (HIV-1)
[16] = biological target: HIV-1 Env of isolate MG RM-D-021 (HIV-1)
[17] = biological target: HIV-1 Env of isolate MG RM-D-001 (HIV-1)
[18] = biological target: HIV-1 Env of isolate MGRM-A-010 (subtype A) (HIV-1)
[19] = biological target: HIV-1 Env of isolate VLGCB3 (subtype B) (HIV-1)
[20] = biological target: HIV-1 envelope glycoprotein (Env) of isolate MGRM-C-028 (HIV-1)
[21] = biological target: HIV-1 Env of isolate MGRM-A-007 (subtype A) (HIV-1)
[22] = biological target: HIV-1 Env of isolate MGRM-AG-009 (subtype AG) (HIV-1)
[23] = biological target: HIV-1 Env of isolate MGRM-A-011 (subtype A) (HIV-1)
[24] = biological target: HIV-1 envelope glycoprotein (Env) of isolate MGRM-C-014 (HIV-1)
[25] = biological target: HIV-1 Env of isolate MGRM-AG-012 (subtype AG) (HIV-1)
[26] = biological target: HIV-1 Env of isolate 98IN022 (subtype C) (HIV-1)
[27] = biological target: HIV-1 Env of isolate CAAN.A2 (subtype B) (HIV-1)
[28] = biological target: HIV-1 Env of isolate 92WR026 (HIV-1)
[29] = biological target: HIV-1 Env of isolate 92UG046 (HIV-1)
[30] = biological target: HIV-1 Env of isolate MGRM-Chronic-B-002 (subtype B) (HIV-1)
[31] = biological target: HIV-1 envelope glycoprotein (Env) of isolate MGRM-C-007 (HIV-1)
[32] = biological target: HIV-1 92BR020 Env (pseudovirus, clade B) (HIV-1)
[33] = biological target: HIV-1 Env of isolate MGRM-F1-004 (pseudovirus) (HIV-1)
[34] = biological target: HIV-1 Env of isolate NL43 (subtype B pseudovirus) (HIV-1)
[35] = biological target: HIV-1 Env of isolate MGRM-Chronic-B-001 (subtype B pseudovirus) (HIV-1)
[36] = biological target: HIV-1 Env of isolate MGRM-F1-008 (pseudovirus) (HIV-1)
[37] = biological target: HIV-1 Env of isolate 98CN009 (pseudovirus) (HIV-1)
[38] = biological target: HIV-1 Env of isolate SC422661.8 (subtype B pseudovirus) (HIV-1)
[39] = biological target: HIV-1 Env of isolate MGRM-F1-012 (pseudovirus) (HIV-1)
[40] = biological target: HIV-1 Env of isolate MGRM-D-026 (pseudovirus) (HIV-1)
[41] = biological target: HIV-1 Env of isolate MGRM-D-001 (pseudovirus) (HIV-1)
[42] = biological target: HIV-1 CMU02 envelope glycoprotein (Env) on pseudovirus (HIV-1)

Chain of 5345_I01 (PGT-137) (antibody) (VH): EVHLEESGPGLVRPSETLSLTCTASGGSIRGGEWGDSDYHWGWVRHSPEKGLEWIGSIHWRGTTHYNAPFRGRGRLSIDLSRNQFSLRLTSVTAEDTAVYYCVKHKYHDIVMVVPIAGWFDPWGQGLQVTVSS
Chain of 5345_I01 (PGT-137) (antibody) (VL): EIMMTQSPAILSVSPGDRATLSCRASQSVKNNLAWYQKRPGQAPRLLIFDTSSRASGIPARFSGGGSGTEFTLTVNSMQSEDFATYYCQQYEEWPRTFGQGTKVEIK
Chain of 4995_E20 (PGT-142) (antibody) (VH): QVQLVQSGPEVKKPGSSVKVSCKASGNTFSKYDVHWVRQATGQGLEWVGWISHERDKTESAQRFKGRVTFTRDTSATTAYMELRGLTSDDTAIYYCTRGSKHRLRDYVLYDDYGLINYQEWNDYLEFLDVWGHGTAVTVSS
Chain of 4995_E20 (PGT-142) (antibody) (VL): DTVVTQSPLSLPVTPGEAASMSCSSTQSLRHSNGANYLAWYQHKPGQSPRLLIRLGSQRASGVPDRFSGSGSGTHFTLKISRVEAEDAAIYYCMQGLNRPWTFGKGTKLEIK
Chain of 4970_K22 (PGT-144) (antibody) (VH): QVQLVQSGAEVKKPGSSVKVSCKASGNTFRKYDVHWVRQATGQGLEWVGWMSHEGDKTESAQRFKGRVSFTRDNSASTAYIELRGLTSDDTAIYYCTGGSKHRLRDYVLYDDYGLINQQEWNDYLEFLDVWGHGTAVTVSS
Chain of 4970_K22 (PGT-144) (antibody) (VL): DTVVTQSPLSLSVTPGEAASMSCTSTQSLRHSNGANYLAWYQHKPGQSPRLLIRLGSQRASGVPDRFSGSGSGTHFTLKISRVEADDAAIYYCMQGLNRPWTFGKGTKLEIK

1496_C09 (PG9) (TCN-109) (antibody) showed an IC50 (µg/mL), pseudovirus neutralization [1] of 1.36 µg/mL, an IC50 (µg/mL), pseudovirus neutralization [2] of 1.86 µg/mL and an IC50, pseudovirus neutralization [2] of 1.91 µg/mL. It also gave an IC50 (µg/ml), pseudovirus neutralization [3] of 0.24 µg/mL, an IC50 (µg/ml), pseudovirus neutralization [4] of 5.43 µg/mL and an IC50 (µg/ml), pseudovirus neutralization [5] of 1.41 µg/mL. For the same substance, the IC50, pseudovirus neutralization [6] was 12.9 µg/mL, the IC50 (µg/ml), pseudovirus neutralization [7] was 0.03 µg/mL and the IC50 (µg/ml), pseudovirus neutralization [8] was 0.07 µg/mL. For the same substance, the IC50 (µg/mL), pseudovirus neutralization [9] was 8.12 µg/mL, the IC50 (µg/ml), pseudovirus neutralization [10] was 0.03 µg/mL and the IC50 (µg/ml), pseudovirus neutralization [11] was 17.5 µg/mL. It also gave an IC50 (µg/mL), pseudovirus neutralization [12] of 6.6 µg/mL.

4970_K22 (PGT-144) (antibody) showed an IC50 (µg/mL), pseudovirus neutralization [1] greater than 50 µg/mL and an IC50 (µg/mL), pseudovirus neutralization [12] greater than 50 µg/mL.

5345_I01 (PGT-137) (antibody) showed an IC50 (µg/mL), pseudovirus neutralization [13] greater than 50 µg/mL, an IC50 neutralization [14] greater than 50 µg/mL and an IC50 (µg/mL), pseudovirus neutralization [15] greater than 50 µg/mL. For the same substance, the IC50 (µg/mL), pseudovirus neutralization [16] was greater than 50 µg/mL, the IC50 (µg/mL), pseudovirus neutralization [17] was greater than 50 µg/mL and the IC50 (µg/mL), pseudovirus neutralization [18] was greater than 50 µg/mL. For the same substance, the IC50 neutralization [19] was 3.36 µg/mL, the IC50 (µg/mL), pseudovirus neutralization [20] was greater than 50 µg/mL and the IC50 (µg/mL), pseudovirus neutralization [21] was greater than 50 µg/mL. It also gave an IC50 (µg/mL), pseudovirus neutralization [22] greater than 50 µg/mL, an IC50 (µg/mL), pseudovirus neutralization [23] greater than 50 µg/mL and a neutralization IC50 [9] greater than 50000 ng/mL. The IC50 (µg/mL), pseudovirus neutralization [24] was greater than 50 µg/mL, the IC50 (µg/mL), pseudovirus neutralization [25] was greater than 50 µg/mL and the IC50 neutralization [26] was 0.408 µg/mL. It also gave an IC50 neutralization [27] greater than 50 µg/mL, an IC50 [28] of 0.092 µg/mL and an IC50 (µg/mL), pseudovirus neutralization [29] greater than 50 µg/mL. It also gave an IC50 neutralization [30] greater than 50 µg/mL and an IC50 (µg/mL), pseudovirus neutralization [31] greater than 50 µg/mL.

VRC01 (antibody) showed an IC50 (µg/mL), pseudovirus neutralization [1] of 0.063 µg/mL, an IC50 [16] of 33.4 µg/mL and an IC50 (µg/mL), pseudovirus neutralization [12] of 0.548 µg/mL.

5114_A19 (PGT-128) (antibody) showed an IC50 (µg/mL), pseudovirus neutralization [13] of 0.005 µg/mL, an IC50 neutralization [14] of 0.02 µg/mL and an IC50 (µg/mL), pseudovirus neutralization [15] of 3.93 µg/mL. It also gave an IC50 (µg/mL), pseudovirus neutralization [16] of 0.014 µg/mL, an IC50 (µg/mL), pseudovirus neutralization [17] of 0.138 µg/mL and an IC50 (µg/mL), pseudovirus neutralization [18] of 0.005 µg/mL. It also gave an IC50 neutralization [19] of 0.012 µg/mL, an IC50 (µg/mL), pseudovirus neutralization [20] of 14.4 µg/mL and an IC50 (µg/mL), pseudovirus neutralization [21] greater than 50 µg/mL. For the same substance, the IC50 (µg/mL), pseudovirus neutralization [22] was 0.021 µg/mL, the IC50 (µg/mL), pseudovirus neutralization [23] was greater than 50 µg/mL and the neutralization IC50 [9] was 6 ng/mL. It also gave an IC50 (µg/mL), pseudovirus neutralization [24] greater than 50 µg/mL, an IC50 (µg/mL), pseudovirus neutralization [25] greater than 50 µg/mL and an IC50 neutralization [26] of 0.014 µg/mL. For the same substance, the IC50 neutralization [27] was 1.48 µg/mL, the IC50 [28] was 0.01 µg/mL and the IC50 (µg/mL), pseudovirus neutralization [29] was greater than 50 µg/mL. The IC50 neutralization [30] was 0.036 µg/mL and the IC50 (µg/mL), pseudovirus neutralization [31] was 0.111 µg/mL.

With 5141_B17 (PGT-126) (antibody) the IC50, pseudovirus neutralization [2] was greater than 10 µg/mL, the IC50 neutralization [32] was 0.0163 µg/mL and the IC50, pseudovirus neutralization [33] was 0.063 µg/mL. The IC50 (µg/mL), pseudovirus neutralization [34] was greater than 50 µg/mL, the IC50 (µg/mL), pseudovirus neutralization [35] was greater than 50 µg/mL and the IC50, pseudovirus neutralization [36] was greater than 50 µg/mL. It also gave an IC50, pseudovirus neutralization [37] of 0.019 µg/mL, an IC50 (µg/mL), pseudovirus neutralization [38] of 0.119 µg/mL and an IC50, pseudovirus neutralization [39] of 0.3 µg/mL. It also gave an IC50, pseudovirus neutralization [40] greater than 50 µg/mL, an IC50, pseudovirus neutralization [41] of 0.084 µg/mL and an IC50, pseudovirus neutralization [42] greater than 10 µg/mL. The IC80 (pseudovirus neutralization) [42] was greater than 10 µg/mL, the IC90 (pseudovirus neutralization) [42] was greater than 10 µg/mL and the IC95 (pseudovirus neutralization) [42] was greater than 10 µg/mL.

For 4995_E20 (PGT-142) (antibody), the IC50 (µg/mL), pseudovirus neutralization [1] was 8.17 µg/mL and the IC50 (µg/mL), pseudovirus neutralization [12] was greater than 50 µg/mL.

With PGV04 (antibody) the IC50 (µg/mL), pseudovirus neutralization [1] was 0.019 µg/mL, the IC50 (µg/mL), pseudovirus neutralization [2] was 0.201 µg/mL and the IC50 (µg/mL), pseudovirus neutralization [9] was 0.255 µg/mL. For the same substance, the IC50 (µg/mL), pseudovirus neutralization [12] was 0.333 µg/mL.
